Data from the supplement of paper PMC9170038.

Assays:
MS2 coat protein [1] = experiment: apparent KD of MS2 coat protein, switch ON state; designed switch direction (-1 OFF switch, 1 ON switch): -1; higher = weaker reporter binding; conditions: FMN input: 0 or 200 uM; Eterna round: R93 (includes R88 designs)
Method in brief: (§1)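 Normalised binding curves from single clusters were fitted, and the median fit for each design is given as apparent KD. The clusters held designed RNA switches transcribed on-chip from Illumina sequencing clusters. These were titrated with SNAP-549-labelled MS2 coat protein (twofold steps from 0.7 or 1.5 nM to 3 µM, 0.8–1.5 h to 10–20 min per step) in 100 mM Tris-HCl pH 7.5, 80 mM KCl, 4 mM MgCl2, without or with constant ligand.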

MS2 coat protein [2] = experiment: apparent KD of MS2 coat protein, switch OFF state (with FMN for OFF switches, without FMN for ON switches); designed switch direction (-1 OFF switch, 1 ON switch): -1; higher = weaker reporter binding; conditions: FMN input: 0 or 200 uM; Eterna round: R93 (includes R88 designs)
Method in brief: as §1

## AAGAACCGAGGAUAUACAUGAGGAUCACCCAUGUAAAAGAAAGAGGGAAAAGAGAAAAGUAGAAGGCGGAAGAA [Berenice I]
MS2 coat protein [1]
  apparent KD of MS2 coat protein: 26.2 nM
MS2 coat protein [2]
  apparent KD of MS2 coat protein: 57.4 nM

## AAGAACGGAGGAUAUACAUGAGGAUCACCCAUGUAAAAGAAAGAAAAGGGAAAGAAAAGUAGAAGGCCGAAGAA [Djeserkare Amenhotep I]
MS2 coat protein [1]
  apparent KD of MS2 coat protein: 39.8 nM
MS2 coat protein [2]
  apparent KD of MS2 coat protein: 51.3 nM

## AAGAAGAGAGGAUAUACAAAAUAAAAGAAAAGAAAGAAAGAACAUGAGGAUCACCCAUGUAGAAGGCUCAAGAA [Hotepibre Qemau Siharnedjheritef]
MS2 coat protein [1]
  apparent KD of MS2 coat protein: 25.6 nM
MS2 coat protein [2]
  apparent KD of MS2 coat protein: 28.4 nM

## AAGAAGGUAGGAUAUACUAGGGCAACUAAUGCAAAGAUAAAACAUGAGGAUCACCCAUGUAGAAGGGCCAGAAA [JR_Exc002_Sub401]
MS2 coat protein [1]
  apparent KD of MS2 coat protein: 33.8 nM
MS2 coat protein [2]
  apparent KD of MS2 coat protein: 35.4 nM

## AAGAAGUAAGGAUAUCGUGCUCGUCACAAAAGUGAUGAGUACGAGAAGGUACAUGAGGAUCACCCAUGUAAAGA [Opal 35]
MS2 coat protein [1]
  apparent KD of MS2 coat protein: 24.6 nM
MS2 coat protein [2]
  apparent KD of MS2 coat protein: 21.9 nM

## AAGAAGUAAGGAUAUGCUGCUCGUCACAAAAGUGAUGAGUAGCAGAAGGUACAUGAGGAUCACCCAUGUUAAGA [JL eternac mod 4]
MS2 coat protein [1]
  apparent KD of MS2 coat protein: 24.4 nM
MS2 coat protein [2]
  apparent KD of MS2 coat protein: 20.6 nM

## AAGAAGUCAGGAUAUCGAAAAGAAAAGAAAAGAAAAGAAAACGAGAAGGGACAUGAGGAUCACCCAUGUAAGAA [Smerdis]
MS2 coat protein [1]
  apparent KD of MS2 coat protein: 46.5 nM
MS2 coat protein [2]
  apparent KD of MS2 coat protein: 25.7 nM

## AAGAAGUCAGGAUAUGCUGCUCGUCACUUGCGUGAUGAGUAGCAGAAGGGACAUGAGGAUCACCCAUGUAAAGA [Exclusion4-cac2]
MS2 coat protein [1]
  apparent KD of MS2 coat protein: 50.7 nM
MS2 coat protein [2]
  apparent KD of MS2 coat protein: 65.6 nM

## AAGAAGUCAGGAUAUGCUGCUCGUCACUUGCGUGAUGAGUAGCAGAAGGGACAUGAGGAUCACCCAUGUAAAGA [Opal 14]
MS2 coat protein [1]
  apparent KD of MS2 coat protein: 50.7 nM
MS2 coat protein [2]
  apparent KD of MS2 coat protein: 65.6 nM

## AAGAAGUGAGGAUAUCGAAGACUGUCGAAAAGACAGUCGAACGAGAAGGCACAUGAGGAUCACCCAUGUGAGGG [Marsurpial 65% 3]
MS2 coat protein [1]
  apparent KD of MS2 coat protein: 130 nM
MS2 coat protein [2]
  apparent KD of MS2 coat protein: 69.9 nM

## AAGAAGUGAGGAUAUCGUUGUCGUCACAAAAGUGAUGACGACGAGAAGGCACAUGAGGAUCACCCAUGUAAAGA [Opal 28]
MS2 coat protein [1]
  apparent KD of MS2 coat protein: 37.8 nM
MS2 coat protein [2]
  apparent KD of MS2 coat protein: 43 nM

## AAGAAGUGAGGAUAUGUCUGUGCGAAAAAAAAAAAGUGCAGACAGAAGGCACAUGAGGAUCACCCAUGUAAAAA [Florian 65% 2]
MS2 coat protein [1]
  apparent KD of MS2 coat protein: 37.5 nM
MS2 coat protein [2]
  apparent KD of MS2 coat protein: 48.1 nM

## AAGAAUCGAGGAUAUACAUGAGGAUCACCCAUGUAAAAGAAAGAAGGGAAAGAGAAAAGUAGAAGGCGAAAGAA [Menkheperre Nekau I]
MS2 coat protein [1]
  apparent KD of MS2 coat protein: 22.6 nM
MS2 coat protein [2]
  apparent KD of MS2 coat protein: 27.7 nM

## AAGAAUGGAGGAUAUACAAAAUAAAAGAAAAGAAAGAAAGAACAUGAGGAUCACCCAUGUAGAAGGCCAAAGAA [Khasekhemre Neferhotep I]
MS2 coat protein [1]
  apparent KD of MS2 coat protein: 33.6 nM
MS2 coat protein [2]
  apparent KD of MS2 coat protein: 24.7 nM

## AAGAGUAGAGGAUAUACAUGAAAAGAGUCGAAAGACUCAAAACAUGAGGAUCACCCAUGUAGAAGGCUACUCAA [Hyphema Seclusion Mod 62% 3]
MS2 coat protein [1]
  apparent KD of MS2 coat protein: 137 nM
MS2 coat protein [2]
  apparent KD of MS2 coat protein: 81.4 nM

## AAGAGUAGAGGAUAUAUAUGAAAAGAGUCGAAAGACUCAAAACAUGAGGAUCACCCAUGUAGAAGGCUACUCAA [Hyphema Seclusion mod]
MS2 coat protein [1]
  apparent KD of MS2 coat protein: 18.7 nM
MS2 coat protein [2]
  apparent KD of MS2 coat protein: 17.5 nM

## AAGAUGUAAGGAUAUGCUGCUCGUCACAAAAGUGAUGAGUAGCAGAAGGUACAUGAGGAUCACCCAUGUAAAGA [JL eternac mod 10]
MS2 coat protein [1]
  apparent KD of MS2 coat protein: 31.5 nM
MS2 coat protein [2]
  apparent KD of MS2 coat protein: 44 nM

## AAGGGACAUGAGGAUCACCCAUGUAAGGAUAUCGGAAAAGGAAAAAAAAAAAAGAAGACGAGAAGGUACAAAAA
MS2 coat protein [1]
  apparent KD of MS2 coat protein: 122 nM
MS2 coat protein [2]
  apparent KD of MS2 coat protein: 71.6 nM

## AAGGGACAUGAGGAUCACCCAUGUGAGGAUAUGACGUAAAUAAAGAAAGAAGAAAUCGUCAGAAGGCACACCAA [55%, Disencluded 2, 3]
MS2 coat protein [1]
  apparent KD of MS2 coat protein: 67 nM
MS2 coat protein [2]
  apparent KD of MS2 coat protein: 117 nM

## AAGGGACAUGAGGAUCACCCAUGUUAGGAUAUGCUAUGGAAAAUAAAAUAAAAACAUAGCAGAAGGAACAAAAA [Mat - Exclusion 1 - Eli mod - D36]
MS2 coat protein [1]
  apparent KD of MS2 coat protein: 43.2 nM
MS2 coat protein [2]
  apparent KD of MS2 coat protein: 60.5 nM

## AAGGUAGGAGGAUAUACAUAGAUACAGAUACAUGUAGACGUACAUGAGGAUCACCCAUGUAGAAGGCCUAUAUA [Mat - Same state - Mayanna Mod - D147]
MS2 coat protein [1]
  apparent KD of MS2 coat protein: 97.3 nM
MS2 coat protein [2]
  apparent KD of MS2 coat protein: 107 nM

## AAGUGCGCAGGAUAUACAUGAGGAUCACCCAUGUAAAGAAAAGAAAGAUCCGAAGAAAGUAGAAGGGCGUGCAA [Variant 1 of Mod 1 of Ex3 sub 3, by Tesla's Dusciple Round 1]
MS2 coat protein [1]
  apparent KD of MS2 coat protein: 49.6 nM
MS2 coat protein [2]
  apparent KD of MS2 coat protein: 209 nM

## AAUAUGUCAGGAUAUGUGUAAAGAAUAAAAGAAAUAACAACACAGAAGGGACAUGAGGAUCACCCAUGUCAACA [May 33]
MS2 coat protein [1]
  apparent KD of MS2 coat protein: 24.8 nM
MS2 coat protein [2]
  apparent KD of MS2 coat protein: 18 nM

## AAUGGUGCAGGAUAUACAUGAGGAUCACCCAUGUAGAUCAGACAUAUGGUCGAAACAUGUAGAAGGGCACCAAA [Ex 3May 54]
MS2 coat protein [1]
  apparent KD of MS2 coat protein: 112 nM
MS2 coat protein [2]
  apparent KD of MS2 coat protein: 319 nM

## AAUGUACGAGGAUAUACAUAGAUACAGAUACAUGUAGACGUACAUGAGGAUCACCCAUGUAGAAGGCGUAUAUA [Mat - Same state - Mayanna Mod - D113]
MS2 coat protein [1]
  apparent KD of MS2 coat protein: 82.8 nM
MS2 coat protein [2]
  apparent KD of MS2 coat protein: 172 nM

## ACAAAACAUGAGGAUCACCCAUGUGAGGAUAUGCGAAACAAACAAACAAACAAACAAAGCAGAAGGCACAACAA [Ex 1 Tesla 3]
MS2 coat protein [1]
  apparent KD of MS2 coat protein: 19.5 nM
MS2 coat protein [2]
  apparent KD of MS2 coat protein: 31 nM

## ACAAGACAUGAGGAUCACCCAUGUGAGGAUAUGCUCGGAUGACAUGACGUUAGCUAACGCAGAAGGCACAAUAA [Exclusion 1]
MS2 coat protein [1]
  apparent KD of MS2 coat protein: 28.7 nM
MS2 coat protein [2]
  apparent KD of MS2 coat protein: 36.7 nM

## ACAGUUACAGGAUAUACAUGAAUAACUUCAAAGAAAACUCUACAUGAGGAUCACCCAUGUAGAAGGGUAACUGA [Ex2 Design 200 (fingers crossed): Random 18]
MS2 coat protein [1]
  apparent KD of MS2 coat protein: 14.3 nM
MS2 coat protein [2]
  apparent KD of MS2 coat protein: 18.8 nM

## ACCUGACAUGAGGAUCACCCAUGUCAGGAUAUGACUUCGAAAAUAAAAUAAAACGAUGUCAGAAGGGACAUGGG [Design 71: Sub-opt PB]
MS2 coat protein [1]
  apparent KD of MS2 coat protein: 21.8 nM
MS2 coat protein [2]
  apparent KD of MS2 coat protein: 15.3 nM

## ACUAAUGAAGGAUAUACAAACAAAAAAAAAACAAAAAAAAAACAUGAGGAUCACCCAUGUAGAAGGUCAAAAAU [JR_Exc002_Sub1201]
MS2 coat protein [1]
  apparent KD of MS2 coat protein: 22 nM
MS2 coat protein [2]
  apparent KD of MS2 coat protein: 20 nM

## ACUGAUACAGGAUAUACAUGAGUGAAAAAAGUAAAUCCACUACAUGAGGAUCACCCAUGUAGAAGGGUAUCAGA [Ex2 Design 179: Random 5B]
MS2 coat protein [1]
  apparent KD of MS2 coat protein: 52.1 nM
MS2 coat protein [2]
  apparent KD of MS2 coat protein: 42.7 nM

## ACUGAUACAGGAUAUACGUGAGUGGAAAAAGUGUUUCCACUACAUGAGGAUCACCCAUGUAGAAGGGUAUCAGA [Ex2 Design 180: Random 6]
MS2 coat protein [1]
  apparent KD of MS2 coat protein: 77.4 nM
MS2 coat protein [2]
  apparent KD of MS2 coat protein: 91.5 nM

## ACUUGACAUGAGGAUCACCCAUGUCAGGAUAUAGUACGACAAAUAAAUAAAAGUUCUACUAGAAGGGAUAUGGA [Amethyst 53]
MS2 coat protein [1]
  apparent KD of MS2 coat protein: 17 nM
MS2 coat protein [2]
  apparent KD of MS2 coat protein: 15.5 nM

## AGAAAGCGAGGAUAUGCUCGGGUUGAAUGACGAGAGAAUACACAUGAGGAUCACCCAUGUAGAAGGUGUAUAAA [JR_Exc002_Sub1712]
MS2 coat protein [1]
  apparent KD of MS2 coat protein: 54 nM
MS2 coat protein [2]
  apparent KD of MS2 coat protein: 35.1 nM

## AGAAAGGCAGGAUAUACAUGAGGAUCACCCAUGUUAAGAAAGUGCGAAAGCACAAGAAGUAGAAGGGCCAAGAA [Rupert goes to college]
MS2 coat protein [1]
  apparent KD of MS2 coat protein: 23.2 nM
MS2 coat protein [2]
  apparent KD of MS2 coat protein: 19.2 nM

## AGAAAGUCAGGAUAUACGAAAGUGCGAAAGCACACAAGGGAACAUGAGGAUCACCCAUGUAGAAGGGACAAGAA [Diamond 78]
MS2 coat protein [1]
  apparent KD of MS2 coat protein: 70.9 nM
MS2 coat protein [2]
  apparent KD of MS2 coat protein: 91.7 nM

## AGAACGUCAGGAUAUCGAACAACAAGUAAAUAGAGAAGAAGCGAGAAGGGACAUGAGGAUCACCCAUGUAAGAA [e4-3]
MS2 coat protein [1]
  apparent KD of MS2 coat protein: 62.5 nM
MS2 coat protein [2]
  apparent KD of MS2 coat protein: 48.9 nM

## AGAACGUCAGGAUAUGCAACAACAAGUAAAUAGAGAAGAAGGCAGAAGGGACAUGAGGAUCACCCAUGUAAGAA [e4]
MS2 coat protein [1]
  apparent KD of MS2 coat protein: 44.1 nM
MS2 coat protein [2]
  apparent KD of MS2 coat protein: 29.9 nM

## AGAAUACAUGAGGAUCACCCAUGUGAGGAUAUGCAAAUAAAAAUAAAAUAAAAUAAUUGCAGAAGGCACGAAAG [EX 1 May 23]
MS2 coat protein [1]
  apparent KD of MS2 coat protein: 44.4 nM
MS2 coat protein [2]
  apparent KD of MS2 coat protein: 91.2 nM

## AGCAAACAUGAGGAUCACCCAUGUGAGGAUAUGAACGAAAAUAAAUAAAAAUAAAAGUUCAGAAGGCACGAGCA [66%, Wbt, 26]
MS2 coat protein [1]
  apparent KD of MS2 coat protein: 30.4 nM
MS2 coat protein [2]
  apparent KD of MS2 coat protein: 35.6 nM
